From US20130195901A1

Target: HLA-A*0201 class I monomer of the iTopia Epitope Discovery System
Test: iTopia binding ED50
Conditions: modification not given

- EC50: 524 nM
B1: PSMA 288-297 (L289(Nle), I297(Nle)) (peptide)
chain: YLSEKIFYV
